# Measured values: patent publication US8016811B2, “Method for transdermal delivery of permeant substances” (priority 2003, dated 2011)
# Experiment: Serum insulin concentration profile in hairless rats after transdermal patch over micropores or subcutaneous dosing
# Format: in vivo
# Text: This example illustrates the ability of the microporation system to mimic the delivery of a subcutaneous infusion of insulin. Hairless rats were purchased and dosed with insulin in accordance with the terms set forth below. The insulin concentration within the serum of the rats was then monitored at given time intervals to provide a blood serum insulin concentration profile.
# Three hairless rats were given a 1 U/kg dose of insulin by way of subcutaneous administration. The concentration of insulin in the rats' blood serum was monitored. The average insulin blood serum concentration for the three rats was determined.
# Five hairless rats were purchased from Charles River. Jugular vein cannulation was performed the day before the experiment to allow the animals recovering from the surgery.
# The experiment was conducted as follows. The rats were anesthetized immediately before the skin treatment, which consisted of cleaning the abdomen side of the rat skin with an alcohol swab. The abdomen was allowed to air dry.
# After the abdomen dried, the microporation system was placed longitudinally, and the bottom corners marked, on the cleaned skin site. The cleaned skin site was then microporated using the microporation system. Following microporation, the microporation system was removed and a liquid reservoir patch was placed on the microporated area. The patch was then filled with a 50 IU/ml dose of insulin and a time-zero sample was immediately taken. The remaining samples were taken according to the preset schedule.
# After the sample at the 4th hour was taken, the rats were anesthetized to retrieve the donor solution from the liquid reservoir patch. Blood sampling continued until the 8th hour.
# Afterward, the test was conducted again, however the patch applied was 2 cm^2 in area. Lastly, the test was performed for a third time, with the patch having a size of 3 cm^2.
# Three hairless rats were prepared and tested in accordance with the procedure set forth in Test 1 above. However, for this test, a second generation planar microporation system was used to create the micropores in the abdomen of each rat. In addition, the transdermal patch contained a 50 IU/ml dose of insulin when applied to the microporated area of the skin of each rat.
# This test was designed to determine any differences in the types of transdermal patches used to deliver insulin through the micropores. Five hairless rats were prepared and tested in accordance with the procedure set forth in Test 1 above. Following microporation of each rat, an early prototype liquid reservoir patch was applied to two of the rats, while a second generation transdermal patch was used to deliver insulin in the remaining three rats. Each patch contained a 50 IU/ml dose of insulin when applied to the microporated area of the skin of each rat.
# A number of rats were prepared in accordance with the procedure set forth in Test 1 above. For those rats that had delivery openings formed on their abdomen, the delivery openings were formed using an early prototype microporation system. Insulin was delivered to the rats using a second generation delivery patch containing the desired concentration of insulin.
# The delivery patch was applied to the rats' abdomen without microporation. The rats in this control group were given a […] concentration dose of insulin.
# For the other rats in this test, the delivery patch contained insulin in concentrations of 10 IU/ml (6 rats), 25 IU/ml (6 rats), […] or 100 IU/ml (6 rats). The insulin serum concentration was monitored in each of the rats at various intervals of time. The average concentration of the rats for that particular insulin concentration (and whether delivery openings were formed or not) was determined and an insulin serum concentration profile was developed.
substance,measurement,setting,value
insulin,"average insulin serum concentration, transdermal through micropores versus subcutaneous","50 IU/ml patch for 4 hours (5 rats) vs 1 U/kg subcutaneous (3 rats), FIG. 5",higher average concentration
same,"duration of higher average insulin serum concentration, transdermal versus subcutaneous","50 IU/ml patch for 4 hours vs 1 U/kg subcutaneous, FIG. 5",longer duration
same,"insulin serum concentration, planar array microporation system versus step and repeat microporation system","50 IU/ml patch for 4 hours, FIG. 7",slightly lower
same,"average insulin serum concentration, change with patch size 1 cm^2 to 2 cm^2","50 IU/ml patch, 4 rats, FIG. 6",roughly doubled
same,"average insulin serum concentration, change with patch size 2 cm^2 to 3 cm^2","50 IU/ml patch, 4 rats, FIG. 6",roughly doubled
same,"average insulin concentration, early prototype liquid reservoir patch versus second generation transdermal patch","50 IU/ml patch, FIG. 8",very similar
same,"average insulin serum concentration, 100 IU/ml dose in comparison to other doses","microporated, 100 IU/ml patch, 6 rats, FIG. 9",very high
same,"average insulin serum concentration, 50 IU/ml dose versus 25 IU/ml dose","microporated, FIG. 9",not much difference
same,"average insulin serum concentration, rats without delivery openings","patch on non-microporated abdomen, 3 rats, FIG. 9",very low
